Reference: patent US20100280227A1 (Genentech, published 2010)
Positions count from the first letter of the chain named. Where “and” joins values, the source holds several entries; their conditions need not be identical. Equal values may be shown once. Read-outs that look alike come from different tables or passages of the source.

T1: mouse BR3 extracellular domain (mouse, UniProt Q9D8D0 1-64)
T1 construct: also called mBR3-ECD; mBR-ECD
T1 sequence: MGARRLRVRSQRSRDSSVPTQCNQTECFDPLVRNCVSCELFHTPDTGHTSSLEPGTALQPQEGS

B1: 3 (Fab, V domains shown)
VH: EVQLVESGGGLVQPGGSLRLSCAASGFTISSNSIHWVRQAPGKGLEWVAWVTPSGGSTDYADSVKGRFTISADTSKNTAYLQMNSLRAEDTAVYYCARRVCYNRLGVCAGGMDYWGQGTLVTVSS
VL: DIQMTQSPSSLSASVGDRVTITCRASQDVSTAVAWYQQKPGKAPKLLIYSASFLYSGVPSRFSGSGSGTDFTLTISSLQPEDFATYYCQQSRISPPTFGQGTKVEIKR
notes: also called V3-3
B2: 5 (Fab, V domains shown)
VH: B1 VH with N32S, V51I, S54G, G55H
VL: B1 VL with S94T
notes: also called V3-5
B3: 34 (Fab, V domains shown)
VH: B1 VH with T28S, S31N, N32H, G55Y, S57I
VL: B1 VL with I93T, S94T
notes: also called V3-34
B4: 37 (Fab, V domains shown)
VH: B1 VH with T28S, S31R, N32R, V51I, S54L, G55Y, D59H
VL: B1 VL
notes: also called V3-37
B5: 9 (Fab, V domains shown)
VH: B1 VH with V51I, G55D, S57N
VL: B1 VL with R92H, I93N, S94T
notes: also called V3-9
B6: 27 (Fab, V domains shown)
VH: B1 VH with V51I, G55D, S57N, R104H
VL: B1 VL with I93M
notes: also called V3-27
B7: V3-46 phage clone (Fab, V domains shown)
VH: B1 VH with S31N, N32S, T52L, G55V, S57F
VL: B1 VL with R92Q
notes: also called V3-46 WT; clone 46
B8: 19 (Fab, V domains shown)
VH: B1 VH with T28S, S30A, S31R, N32S, V51I, T52L, G55A
VL: B1 VL with S94T
notes: also called V3-19
B9: 35 (Fab, V domains shown)
VH: B1 VH with S54G, G55V
VL: B1 VL with R92L, I93M, S94T
notes: also called V3-35
B10: 41 (Fab, V domains shown)
VH: B1 VH with T28S, S30R, S31N, T52L, G55N, S57V
VL: B1 VL with R92G
notes: also called V3-41; clone 41
B11: 24 (Fab, V domains shown)
VH: B1 VH with T28S, S30R, N32I, V51I, S54F, G55N, S57T
VL: B1 VL with R92L, S94T
notes: also called V3-24
B12: 16 (Fab, V domains shown)
VH: B1 VH with T28S, V51I, S54T, G55H
VL: B1 VL with S94T
notes: also called V3-16
B13: Hu11G9-36 Fab (Fab, V domains shown)
VH: EVQLVESGGGLVQPGGSLRLSCAASGDSINFGYWNWVRQAPGKGLEWVGYISYSGSTYYNPSLKSRFTISRDTSKNTFYLQMNSLRAEDTAVYYCAALNDLFLYFDVWGQGTLVTVSS
VL: DIQMTQSPSSLSASVGDRVTITCRSSQSLVHSNGNTYLHWYQQKPGKAPKLLIYKVSNRFSGVPSRFSGSGSGTDFTLTISSLQPEDFATYYCSQSTHVPPFTFGQGTKVEIKR
notes: Fab
B14: Hu11G9-46 IgG (antibody, V domains shown)
VH: B13 VH with N30T, F31S, A97G, F102Y
VL: B13 VL
notes: humanized IgG
B15: Hu11G9-36 IgG (antibody, V domains shown)
VH: B13 VH
VL: B13 VL
notes: humanized IgG
B16: Hu2.1-46 Fab (Fab, V domains shown)
VH: EVQLVESGGGLVQPGGSLRLSCAASGDSITRGYWNWVRQAPGKGLEWVGYINYSGTTYYNPSLKSRFTISRDTSKNTFYLQMNSLRAEDTAVYYCANSNFYGAMDYWGQGTLVTVSS
VL: DIQMTQSPSSLSASVGDRVTITCRASESVDDYGISFMHWYQQKPGKAPKLLIYRASDLESGVPSRFSGSGSGTDFTLTISSLQPEDFATYYCQQTSKDPWTFGQGTKVEIKR
notes: Fab
B17: Hu2.1-40 Fab (Fab, V domains shown)
VH: B16 VH with N97T, S98T, N99L, F100P
VL: B16 VL
notes: Fab
B18: Hu2.1-RL Fab (Fab, V domains shown)
VH: B16 VH with F78L, N97T, S98P, N99H, F100T
VL: B16 VL
notes: Fab
B19: Hu2.1-94 Fab (Fab, V domains shown)
VH: B16 VH with F78L, N97T, N99H, F100N, Y101T, A103E
VL: B16 VL
notes: Fab
B20: Hu2.1-30 Fab (Fab, V domains shown)
VH: B16 VH with S98L, F100Y
VL: B16 VL
notes: Fab
B21: Hu2.1-40L Fab (Fab, V domains shown)
VH: B16 VH with F78L, N97T, S98T, N99L, F100P
VL: B16 VL
notes: Fab
B22: chimeric 9.1 Fab (Fab, V domains shown)
VH: EVKLVESGGGLVQPGGSLRLSCAISGFTVTAYYMSWVRQPPGKALEWLGFIRDKANGYTTEYNPSVKGRFTISRDNSQSIFYLQMNTLRAEDSATYYCAQVRRALDYWGQGTTVTVSA
VL: DIVMSQSPSSLAVSVGEKVTMSCKSSQSLLYSSNQNNYLAWYQQKPGQSPKLLIYWASTRESGVPDRFTGSGSGTDFTLTISSVKAEDLAVYYCQQYYTYPYTFGGGT
notes: Fab with murine variable domains; also called Ch 9.1 Fab

Legend:
[1] = target: T2, human BR3 extracellular domain (human, UniProt Q96RJ3 1-61); assay: phage competition ELISA
T2 construct: biotinylated where used as tracer; also called hBR3-ECD; BR3-ECD

[2] = target: T1, mouse BR3 extracellular domain; assay: phage competition ELISA
[3] = target: T2, human BR3 extracellular domain; assay: SPR, BR3 ECD on chip;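 further: Anti-BR3 antibodies passed over the chip at high flow in PBS with 0.05% polysorbate 20, on and off rates fitted together globally to a 1:1 binding model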
[4] = target: T3, variant human BR3-Fc fusion; assay: SPR, vBR3-Fc on chip;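 further: Anti-BR3 antibodies passed over chip-bound BR3-Fc in PBS with 0.05% polysorbate 20, on and off rates fitted together globally to a 1:1 binding model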
T3 construct: produced in CHO cells; also called vBR3-Fc; vhBR3-Fc
Description: After coupling, unoccupied sites on the chip were blocked by injecting 20 μl of 1M ethanolamine, pH 8.5. The running buffer was PBS containing 0.05% polysorbate 20. […] The binding surface was regenerated by injecting 20-30 μl of 10 mM glycine.HCl (pH 1.5). […] Data were analyzed using a 1:1 binding model using global fitting. The association and dissociation rate constants were fitted simultaneously (BIAevaluation software).
A high flow rate was used in order to minimize mass transport effects.

Binder | IC50 [1] | IC50 [2] | Kd [3] | koff [3] | kon [3] | Kd [4] | koff [4] | kon [4] | Kd ([4]; 140 RU BR3-Fc immobilized) | Kd ([4]; 380 RU BR3-Fc immobilized)
B1 | 1.3 nM | 16.1 nM |  |  |  |  |  |  |  | 
B2 | 2.5 nM | 40.9 nM |  |  |  |  |  |  |  | 
B3 | 0.3 nM | 6.4 nM |  |  |  |  |  |  |  | 
B4 | 0.7 nM | 1.3 nM |  |  |  |  |  |  |  | 
B5 | 11.6 nM | 6.1 nM |  |  |  |  |  |  |  | 
B6 | 9.4 nM | 1.4 nM |  |  |  |  |  |  |  | 
B7 | 0.2 nM | 0.8 nM |  |  |  |  |  |  |  | 
B8 | 1.3 nM | 1.8 nM |  |  |  |  |  |  |  | 
B9 | 0.8 nM | 21.9 nM |  |  |  |  |  |  |  | 
B10 | 0.4 nM | 0.6 nM |  |  |  |  |  |  |  | 
B11 | 0.6 nM | 23 nM |  |  |  |  |  |  |  | 
B12 | 1.7 nM | 16.8 nM |  |  |  |  |  |  |  | 
B13 |  |  | 0.7 nM and 0.65 nM | 0.00105 s⁻¹ and 0.000954 s⁻¹ | 1.49e+06 M⁻¹ s⁻¹ and 1.47e+06 M⁻¹ s⁻¹ | 2.31 nM and 2.08 nM | 0.00104 s⁻¹ and 0.000968 s⁻¹ | 450000 M⁻¹ s⁻¹ and 466000 M⁻¹ s⁻¹ |  | 
B14 |  |  | 0.025 nM | 4.2e-05 s⁻¹ | 1.66e+06 M⁻¹ s⁻¹ | 0.288 nM | 0.000186 s⁻¹ | 648000 M⁻¹ s⁻¹ |  | 
B15 |  |  | 0.024 nM | 4.1e-05 s⁻¹ | 1.71e+06 M⁻¹ s⁻¹ | 0.4 nM | 0.000231 s⁻¹ | 576000 M⁻¹ s⁻¹ |  | 
B16 |  |  | 0.27 nM | 0.000693 s⁻¹ | 2.55e+06 M⁻¹ s⁻¹ | 0.13 nM | 0.000257 s⁻¹ | 1.96e+06 M⁻¹ s⁻¹ |  | 
B17 |  |  | 8.67 nM | 0.000923 s⁻¹ | 110000 M⁻¹ s⁻¹ | 3.2 nM | 0.00123 s⁻¹ | 380000 M⁻¹ s⁻¹ |  | 
B18 |  |  | 10 nM | 0.00176 s⁻¹ | 180000 M⁻¹ s⁻¹ | 11.2 nM | 0.00139 s⁻¹ | 120000 M⁻¹ s⁻¹ |  | 
B19 |  |  | 0.82 nM | 0.00114 s⁻¹ | 1.39e+06 M⁻¹ s⁻¹ | 1.67 nM | 0.000804 s⁻¹ | 480000 M⁻¹ s⁻¹ |  | 
B20 |  |  | 0.08 nM and 0.059 nM | 0.000311 s⁻¹ and 0.000232 s⁻¹ | 3.84e+06 M⁻¹ s⁻¹ and 3.94e+06 M⁻¹ s⁻¹ | 0.07 nM and 0.092 nM | 0.000157 s⁻¹ and 0.000222 s⁻¹ | 2.18e+06 M⁻¹ s⁻¹ and 2.41e+06 M⁻¹ s⁻¹ |  | 
B21 |  |  | 35.8 nM | 0.00156 s⁻¹ | 40000 M⁻¹ s⁻¹ | 3.49 nM | 0.00121 s⁻¹ | 350000 M⁻¹ s⁻¹ |  | 
B22 |  |  |  |  |  |  |  |  | 20 nM | 21.8 nM
